The values below come from US20150259384A1.

Assay [1] addresses Human Rb construct (residues 53-787, delta245-267, delta582-642, S780A), un-phosphorylated (human) (UniProt P06400). Briefly: isothermal titration calorimetry; E2F (~1 mM) titrated into ~50 uM un-phosphorylated Rb.
In assay [2] the target is Phosphorylated human Rb construct (residues 53-787, delta245-267, delta582-642, S780A) saturated with the … peptide (human) (UniProt P06400). As to the kind of experiment: isothermal titration calorimetry; E2F (~1 mM) titrated into ~50 uM phosphorylated Rb first saturated with the … peptide. For orientation: ITC needs no label: the signal is the heat of the interaction.
Sequence of Phosphorylated human Rb construct (residues 53-787, delta245-267, delta582-642, S780A) saturated with the … peptide (human) (P06400 other isoform, or with tags, fused parts or gaps S780A S780A limits assumed): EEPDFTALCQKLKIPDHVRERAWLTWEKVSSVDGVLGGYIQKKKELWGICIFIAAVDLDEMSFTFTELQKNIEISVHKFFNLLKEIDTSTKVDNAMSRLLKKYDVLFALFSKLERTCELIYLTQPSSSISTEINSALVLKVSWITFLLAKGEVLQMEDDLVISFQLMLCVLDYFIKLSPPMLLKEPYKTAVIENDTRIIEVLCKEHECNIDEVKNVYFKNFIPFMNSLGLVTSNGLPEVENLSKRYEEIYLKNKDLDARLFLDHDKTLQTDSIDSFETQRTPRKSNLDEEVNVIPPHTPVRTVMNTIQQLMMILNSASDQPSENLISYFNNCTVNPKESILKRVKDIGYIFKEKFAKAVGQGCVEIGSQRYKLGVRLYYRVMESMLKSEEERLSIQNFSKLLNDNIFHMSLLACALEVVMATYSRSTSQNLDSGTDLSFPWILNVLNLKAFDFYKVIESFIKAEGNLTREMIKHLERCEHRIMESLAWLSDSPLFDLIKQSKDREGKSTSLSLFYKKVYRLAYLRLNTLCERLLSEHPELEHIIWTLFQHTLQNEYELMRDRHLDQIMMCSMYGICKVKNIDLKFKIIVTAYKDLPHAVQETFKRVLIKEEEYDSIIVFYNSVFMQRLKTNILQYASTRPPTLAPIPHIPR
Assay [3] deals with Human Rb construct (residues 53-787, delta245-267, delta582-642, S780A), phosphorylated with recombinant Cdk (human) (UniProt P06400). Briefly: isothermal titration calorimetry; E2F (~1 mM) titrated into ~50 uM phosphorylated Rb.
Sequence of Human Rb construct (residues 53-787, delta245-267, delta582-642, S780A), phosphorylated with recombinant Cdk (human) (P06400 other isoform, or with tags, fused parts or gaps S780A S780A limits assumed): as above

Sequence of Human Rb construct (residues 53-787, delta245-267, delta582-642, S780A), un-phosphorylated (human) (P06400 other isoform, or with tags, fused parts or gaps S780A S780A limits assumed): as above

“Human E2F1 transactivation domain (residues 380-727) (from UniProt Q01094 380-437)”: the results for the Kd in assay [1], in assay [2] and in assay [3] were 100 nM, 700 nM and 3000 nM, respectively.

As usually defined, the Kd is the concentration at which binding is half-saturated.
